The record followed here is publication PMC3639047.

This assay addresses His6-human talin (human) (UniProt Q9Y490). The experiment in a line: pull-down.

B1: His6-vinculin head (Vh), vinculin D1 domain (amino acid residues 1–258) (domain or fragment)
chain: MPVFHTRTIESILEPVAQQISHLVIMHEEGEVDGKAIPDLTAPVSAVQAAVSNLVRVGKETVQTTEDQILKRDMPPAFIKVENACTKLVRAAQMLQADPYSVPARDYLIDGSRGILSGTSDLLLTFDEAEVRKIIRVCKGILEYLTVAEVVETMEDLVTYTKNLGPGMTKMAKMIDERQQELTHQEHRVMLVNSMNTVKELLPVLISAMKIFVTTKNTKSQGIEEALKNRNFTVEKMSAEINEIIRVLQLTSWDEDAW
Take B1: the fold lower IC50 than that of the RIAM peptide was 100 fold.
